Reference: the nanobody polyreactivity screen of Harvey et al. (2022)

Assay: yeast display, Sf9 membrane polyspecificity reagent, FACS + sequencing; frameworks hold sequencing errors
Summary of the method: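 Nanobodies from a synthetic yeast display library (Saccharomyces cerevisiae BJ5465), induced 36–48 hours with galactose, were stained 1 hour at 4 °C with 10% biotinylated, detergent-solubilized Sf9 membrane reagent, enriched on streptavidin microbeads, then FACS-sorted. Anti-HA (expression) and streptavidin (reagent binding) fluorescence set low and high (top ~1%) gates. Polyreactivity labels come from the gate of origin. Genes were colony-PCR amplified, MiSeq 2 × 250 sequenced and filtered by CDR length.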

Row | Sequence | polyreactivity (PSR sort gate)
1 | QVQLVESGGGLVQAGGSLRLSCAASGITFKWNDMGWYRQAPGKEREFVAAITGSTGSTFYADSVKGRFTISRDNAKNTVYLQMISLKPEDTAVYYCAAGPWFYYWGQGTQVTVSS | low polyreactivity
2 | QVQLVESGGGLVQAGGSLRLSCAASGITFKYTAMGWYRQAPGKERELVAAISRRGGRTYYADSVKGRFTISRDNAKNTVYLQMNSLKPEDTAVYYCNVETWSVGGREYDYWGQGTQVTVSS | high polyreactivity
3 | QVQLVESGGGLVQAGGSLRLSCAASGITFKYYAMGWYRQAPGKERELVADISWGGGSTYYADSVKGRFTISRDNAKNTVYLQMNSLKPEDTAVYYCAAEYSGSYYSFWMVYWGLGTQVTVSS | low polyreactivity
4 | QVQLVESGGGLVQAGGSLRLSCAASGITFLANAMGWYRQAPGKERELVATITSRGASTYYADSVKGRFTISRDNAKNTVYLQMNSLKPEDSAVYYCAATVRRRYERYNYWGQGTQVTVSS | high polyreactivity
5 | QVQLVESGGGLVQAGGSLRLSCAASGITFLDYTMGWYRQAPGKERELVATISKSGGSTYYADSVKGRFTISRDNAKNTVYLQMNSLKPEDTAVYYFAARGFSFWRYYYWGQGTQVTVSS | high polyreactivity
6 | QVQLVESGGGLVQAGGSLRLSCAASGITFLPYAMGWYRPEPGKERELVAAITRGGGSTYADSVKGRFTISRDNAKNTVYLQMNSLKPEDTAVYYCNAKGRGWTAQYDYWGQGTQVTVSS | low polyreactivity
7 | QVQLVESGGGLVQAGGSLRLSCAASGITFLPYTMGWYRQAPGKERELVATISWNGGSTYYADSVKGRFTISRDNAKNTVYLQMNSLKPEDTAVYYCATGKWGYFRYNYWGQGTQVTVSS | high polyreactivity
8 | QVQLVESGGGLVQAGGSLRLSCAASGITFLTYAMGWYRQSPGKDRELVASITYSGGTTYYADSVKGRFTISRDNAKNTVYLQMNSLQPEDTAVYYCNTDWRTSVGYDYWGQGTQVTVSS | low polyreactivity
9 | QVQLVESGGGLVQAGGSLRLSCAASGITFLTYTMGWYRQAPGKERELVAAISRSGGRTYYADSVKGRFTISRDNAKNTVYFQMNSLKPEDTAVYYCAAVSANQDFDYWGQGTQVTVSS | high polyreactivity
10 | QVQLVESGGGLVQAGGSLRLSCAASGITFLYYTRGWYRPAPGKERELVASISRSGNTYYADSVKGRFTISRDNAKNTVYLQMNSLKPEDTAVYYCAAKRKSYYSYNFDYWGQGTQVTVSS | high polyreactivity
11 | QVQLVESGGGLVQAGGSLRLSCAASGITFNAYAMGLYRQAPGKERELVAAISRSGGSTYYADSVKGRFTISRDNANNTVYLQMNSLKPEDTAVYYCAVDYRTRGDYWGQGTQVTVSS | high polyreactivity
12 | QVQLVESGGGLVQAGGSLRLSCAASGITFNDNAMGWYRQAPGKERELVAAINSGTGTYYADSVKGRFTISRDNAKNTVYLQMNSLKPEDTAVYYCAADSRPYLRDYWGQGTQVTVSS | low polyreactivity
13 | QVQLVESGGGLVQAGGSLRLSCAASGITFNEYAMGWYIQAPGKERELVAAISRRGGSTYYADSVKGRFTISRDNAKNTVYLQMNSLKPEDTAVYYCAAYYPSHEYSGFWSDTYEYWGQGTQVTVSS | low polyreactivity
14 | QVQLVESGGGLVQAGGSLRLSCAASGITFNRYAMGWYRQAPGKERELVATISYRGGSTSYADSVKGRFTISRDNAKNTVYLQMNSLKPEDTAVYYCATDEGYVLFKYYSWGQGTQVTVSS | low polyreactivity
15 | QVQLVESGGGLVQAGGSLRLSCAASGITFNSYAMGWYRQAPGKERELVAAISGSGSSTYYADSVKGRFTISRDNAKNTVYLQMNSLKPEDTAVYYCAATVYSSWTYYTHEYWGQGTQVTVSS | low polyreactivity
16 | QVQLVESGGGLVQAGGSLRLSCAASGITFNTYAMGWYRQAPGKERELVAVITWSDGGTYYADSVKGRFTISRDNAKNTVYLQMNSLKPEDTAVYYCAKVLGGLRHGEVLDEYDYWGQGTQVTVSS | low polyreactivity

Row | Sequence | polyreactivity (PSR sort gate)
17 | QVQLVESGGGLVQAGGSLRLSCAASGITFNYYVKGWYRQAPGKERELVAAIRRGGSTNYADSVKGRFTISRDNAKNTVYLQMNSLKPEDTAVYYCASRTYRGLAYDYWGQGTQVTVSS | high polyreactivity
18 | QVQLVESGGGLVQAGGSLRLSCAASGITFPDYAMGWYRQAPGKERELVASISDSGGNTYYADSVKGRFTISRDNAKNTVYLQMNSLKPEDTAVYYCAVDSWYYYIVLYDYWGQGTQVTVSS | high polyreactivity
19 | QVQLVESGGGLVQAGGSLRLSCAASGITFPGYAMGSYRQAPGKERELVAVIRKSGTSTYYADSVKGRFTISRDNAKNTVYLQMNSLKPEDTAVYYCAAGGPSTLDDYWGQGTQVTVSS | low polyreactivity
20 | QVQLVESGGGLVQAGGSLRLSCAASGITFPGYAMGWYRQAPGKERELVAAIDWSGDGTYYADSVKGRFTISRDNAKNTVYLQMNSLKPEDTAVYYCAKDNYPNHSTVLAVIYDYWGQGTQVTVSS | low polyreactivity
21 | QVQLVESGGGLVQAGGSLRLSCAASGITFPHYAMGWYRQAPGKERELVAAISSSGGRTYYADSVKGRFTISRDNAKNTVYFQMNSLKPEDTAVYYCNKLRYPLLPPKYYYWGQGTQVTVSS | high polyreactivity
22 | QVQLVESGGGLVQAGGSLRLSCAASGITFPKYAMGWYRQAPGKERELVAAITKSGGSTYYADSVKGRFTISRDNAKNTVYLQMNSLKPEDTAVYYCAVVSRGITKYDYWGQGTQVTVSS | high polyreactivity
23 | QVQLVESGGGLVQAGGSLRLSCAASGITFPLYVMGWYRQAPGKERELVAAISASGGSTYADSVKGRFTISRDNAKNTVYLQMNSLKPEDTAVYYCNADVYVGYEYVYWGQGTQVTVSS | low polyreactivity
24 | QVQLVESGGGLVQAGGSLRLSCAASGITFPRNAMGWYRQAPGKERELVAAISARGGNTYYADSVKGRFTISRDNSKNTGYLQMIRLKPEDTAVYDCNALGSSFSEPSEYDYWGQGTQVTVSS | low polyreactivity
25 | QVQLVESGGGLVQAGGSLRLSCAASGITFPRNAMGWYRQAPGKERELVAAISARGGNTYYADSVKGRFTISRDNSKNTVYLQMNSLKPEDTAVYYCNALGSSYSEPSEYDYWGQGTQVTVSS | low polyreactivity
26 | QVQLVESGGGLVQAGGSLRLSCAASGITFPRYTMGWYRPAPGKERELVAAISSGGSTYYADSVKGRFTISRDNAKNTVYLQMNSLKPEDTAVYYCNAVVPYWYYIYDYWGQGTQVTVSS | high polyreactivity
27 | QVQLVESGGGLVQAGGSLRLSCAASGITFPSYVMGWYRQAPGKEREFVAAITGSAGSTYYADSVKGRFTISRDNAKNTVYLQMNSLKPEDTAVYYCAARVRYVNPKYYYWGQGTQVTVSS | high polyreactivity
28 | QVQLVESGGGLVQAGGSLRLSCAASGITFPVYAMGWYRQAPGKEREFVASIRFSTGRTYYADSVKARFTISRDYAKNTVYLQMNSLKPEDTAVYYCRGTTQSPYNSWGQGTQVTVSS | high polyreactivity
29 | QVQLVESGGGLVQAGGSLRLSCAASGITFPYNAMGWYRQAPGKERELVADISSSGGITYYADSVKGRFTISRDNAKNTVYLQMNSLKPEDTAVYYCAVRKYGYGFEMDYWGQGTQVTVSS | low polyreactivity
30 | QVQLVESGGGLVQAGGSLRLSCAASGITFQRYAMGWYRQAPGKERELVAAITRRGGSTYYADSVKGRFTISRDNAKNTVYLQMNILKPEDTAVYYCAADLFFKARGYDYWGQGTQVTVSS | high polyreactivity
31 | QVQLVESGGGLVQAGGSLRLSCAASGITFQWYAMGWYRQAPGKERELVAAITYRGGSTYYADSVKGRFTISRDNAKNTVYLQMNSLKPEDTAVYYCARDHSRHLHPSWLDYWGQGTQVTVSS | high polyreactivity
32 | QVQLVESGGGLVQAGGSLRLSCAASGITFQYYAMGWYRQAPGKERELVASISYRGGRTYYADSVKGRFTISRDNAKNTVYLQMNSLKQEDTSVYYCAADWRYTTFWTLRYYGFDYWGQGTQVTVSS | high polyreactivity
